Assay results from US6361968, “Extension of a protein-protein interaction surface to inactive the function of a cellular protein” (The United States of America as represented by the …).

T1: VBP-C/EBP chimera (VBP basic region, C/EBP leucine zipper) (Gallus gallus / Rattus norvegicus?)
T1 chain: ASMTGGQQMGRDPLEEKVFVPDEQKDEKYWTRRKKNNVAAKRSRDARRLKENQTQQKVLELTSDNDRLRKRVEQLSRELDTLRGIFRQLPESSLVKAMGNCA


Key:
C/EBPalpha = C/EBPalpha (UniProt P05554 P05554:1-358); assay: cell_activity; CAT transactivation in HepG2; completely inhibited by 3heptad-F; details: tags: N-terminal FLAG; chain copies: 2 (inferred)
Source text: Human hepatoma cells (HepG2) were transiently transfected with three plasmids, a chloramphenicol acetyl transferase (CAT) expression plasmid driven by a single C/EBP cis element, the C/EBP transactivator, and different DNs. The histogram presents the extent of transactivation observed in the presence of different combinations of transactivator and dominant-negatives. In the absence of any DN, expressed C/EBP transactivated a single C/EBP site approximately 10 fold. […] This protein was able to transactivate a C/EBP containing promoter and was not inhibited by 3heptad-F.
In these experiments, 10 μg of reporter plasmid, 0.3 μg of transactivator, and 5 μg of DN were added to each transient transfection. […] Sheared salmon sperm DNA was added to bring the DNA concentrations to 20 μg. Calcium phosphate transfections were performed following the manufacturer's instructions (Gibco).

[1] = molecular target: T1, VBP-C/EBP chimera (VBP basic region, …); assay: competition; calculated from displacement by 0-3heptad-F dominant negatives, Trp fluorescence, 25 C, 150 mM KCl, 12.5 mM phosphate pH 7.4; details: chain copies: 2 (stated)
Experimental: FIG. 14A: 3heptad-F inhibits C/EBP DNA binding. […] Protein was diluted four-fold in the successive lanes. […] FIG. 14B: Displacement of VBP-C/EBP from DNA by five dominant negatives (DNs) assayed by fluorescence. Fluorescence of a single tryptophan located in the basic region of VBP-C/EBP increased upon DNA binding (minutes 5–10). The addition of 1.1 molar equivalents of the F zipper or of the four different acidic extension caused a decrease in fluorescence. After 20 minutes, 10 more molar equivalents were added, causing an additional displacement of VBP-C/EBP from the DNA. 4heptad-F, shown in bold, causes the most dramatic displacement of VBP:C/EBP. […] This is not observed for the other four mixtures which return to the VBP-C/EBP-only baseline.

Binder	activity (C/EBPalpha) [fold]	Kd [1] [nM]
C/EBP consensus site in CAT reporter promoter (dsDNA) DNA 1: ATTGCGCAAT DNA 2: ATTGCGCAAT	~10	–
28 bp C/EBP site probe (dsDNA) DNA 1: GTCAGTCAGATTGCGCAATATCGGTCAG DNA 2: CTGACCGATATTGCGCAATCTGACTGAC	–	0.1
